Assay results taken from patent US20240293576A1.

Legend:
HIV virus pAD-8 (HIV-1) = test: cell-based or functional assay
HIV virus pNL4-3 (HIV-1) = test: cell-based or functional assay

anti-HIV broad-spectrum neutralizing antibody 10E8V4-5R+100cF
AD-8 RLU (TZMbl luciferase, neutralisation by supernatant) (HIV virus pAD-8 (HIV-1)): 976000 RLU | pNL4-3 RLU (TZMbl luciferase, neutralisation by supernatant) (HIV virus pNL4-3 (HIV-1)): 121000 RLU

anti-HIV broad-spectrum neutralizing antibody PGT128
AD-8 RLU (TZMbl luciferase, neutralisation by supernatant) (HIV virus pAD-8 (HIV-1)): 147000 RLU | pNL4-3 RLU (TZMbl luciferase, neutralisation by supernatant) (HIV virus pNL4-3 (HIV-1)): 474000 RLU
